This experiment concerns the target Helicobacter pylori CbpA, wild type, carboxyl-terminal His-tagged (H. pylori (strain G27)). Nature of the experiment: cross-linking; 5 uM purified protein with 0, 0.0025, 0.005 and 0.01% glutaraldehyde in 1x binding buffer (10 mM Tris-HCl pH 8.0, 50 mM NaCl, 10 mM KCl, 5 mM MgCl2, 0.1 mM DTT, 0.01% NP40), 1 hour at 25 °C; SDS-PAGE, Coomassie staining.

By stoichiometry N is commonly meant a count of units in the complex or per binding partner. For “Helicobacter pylori CbpA, wild type, carboxyl-terminal His-tagged (natural protein)”, the stoichiometry N stood at 2.
